# Key:
# c-Src SH2 = assay: SH2 binding enrichment of the phosphorylated peptide, bacterial display (enrichment ratio); higher = better substrate or ligand; peptides without Tyr show the background
# SHP2-C SH2 = assay: as above
# Grb2 SH2 = Grb2 SH2 (UniProt P62993); assay: as above
# EPHB2 = EPHB2 (UniProt P29323); assay: phosphorylation enrichment, bacterial display (enrichment ratio); higher = better substrate or ligand; peptides without Tyr show the background
# AncSZ = assay: as above
# EPHB1 = EPHB1 (UniProt P54762); assay: as above
# c-Abl (mouse) = assay: as above
# FGFR1 = FGFR1 (UniProt P11362); assay: as above
# Sequence of FGFR1 (P11362 whole entry, looked up): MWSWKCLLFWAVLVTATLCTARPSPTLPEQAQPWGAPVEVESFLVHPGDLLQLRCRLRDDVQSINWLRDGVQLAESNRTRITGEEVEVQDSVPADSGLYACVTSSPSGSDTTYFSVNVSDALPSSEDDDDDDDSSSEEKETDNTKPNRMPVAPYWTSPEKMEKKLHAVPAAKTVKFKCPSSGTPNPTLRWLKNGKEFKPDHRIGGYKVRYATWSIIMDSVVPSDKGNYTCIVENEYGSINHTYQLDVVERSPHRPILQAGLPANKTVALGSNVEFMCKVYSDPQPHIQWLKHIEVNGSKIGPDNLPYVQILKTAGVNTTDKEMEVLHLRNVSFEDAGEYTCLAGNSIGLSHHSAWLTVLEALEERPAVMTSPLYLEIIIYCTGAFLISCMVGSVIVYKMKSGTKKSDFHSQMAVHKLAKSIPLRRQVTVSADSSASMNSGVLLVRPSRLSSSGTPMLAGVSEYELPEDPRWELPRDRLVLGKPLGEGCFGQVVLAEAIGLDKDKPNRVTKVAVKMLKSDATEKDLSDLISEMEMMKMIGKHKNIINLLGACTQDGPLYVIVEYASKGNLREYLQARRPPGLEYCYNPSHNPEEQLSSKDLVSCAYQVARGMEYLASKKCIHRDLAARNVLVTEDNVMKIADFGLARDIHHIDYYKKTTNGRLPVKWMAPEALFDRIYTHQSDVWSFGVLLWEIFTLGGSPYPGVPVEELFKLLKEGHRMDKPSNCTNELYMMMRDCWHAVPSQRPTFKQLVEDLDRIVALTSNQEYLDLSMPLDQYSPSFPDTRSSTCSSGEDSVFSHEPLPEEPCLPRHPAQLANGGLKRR
# MERTK = MERTK (UniProt Q12866); assay: as above
# Fer (mouse) = assay: as above
# Fyn = Fyn (UniProt P06241); assay: as above
# Sequence of Fyn (P06241 whole entry, looked up): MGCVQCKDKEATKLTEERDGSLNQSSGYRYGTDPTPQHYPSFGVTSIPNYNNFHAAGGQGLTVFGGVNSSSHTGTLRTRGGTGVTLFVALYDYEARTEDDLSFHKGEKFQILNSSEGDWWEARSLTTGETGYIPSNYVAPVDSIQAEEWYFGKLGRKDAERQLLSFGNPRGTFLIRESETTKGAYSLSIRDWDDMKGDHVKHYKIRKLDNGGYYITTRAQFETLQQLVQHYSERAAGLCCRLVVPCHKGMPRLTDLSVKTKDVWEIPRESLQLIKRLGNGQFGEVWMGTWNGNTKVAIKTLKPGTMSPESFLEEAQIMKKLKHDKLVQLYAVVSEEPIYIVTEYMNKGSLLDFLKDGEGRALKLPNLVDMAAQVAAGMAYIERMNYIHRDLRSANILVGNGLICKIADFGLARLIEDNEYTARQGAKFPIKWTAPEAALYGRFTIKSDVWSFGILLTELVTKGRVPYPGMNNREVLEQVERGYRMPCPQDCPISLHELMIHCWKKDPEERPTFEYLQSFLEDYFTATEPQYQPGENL
# Jak2 = Jak2 (UniProt O60674); assay: as above
# Sequence of Jak2 (O60674 whole entry, looked up): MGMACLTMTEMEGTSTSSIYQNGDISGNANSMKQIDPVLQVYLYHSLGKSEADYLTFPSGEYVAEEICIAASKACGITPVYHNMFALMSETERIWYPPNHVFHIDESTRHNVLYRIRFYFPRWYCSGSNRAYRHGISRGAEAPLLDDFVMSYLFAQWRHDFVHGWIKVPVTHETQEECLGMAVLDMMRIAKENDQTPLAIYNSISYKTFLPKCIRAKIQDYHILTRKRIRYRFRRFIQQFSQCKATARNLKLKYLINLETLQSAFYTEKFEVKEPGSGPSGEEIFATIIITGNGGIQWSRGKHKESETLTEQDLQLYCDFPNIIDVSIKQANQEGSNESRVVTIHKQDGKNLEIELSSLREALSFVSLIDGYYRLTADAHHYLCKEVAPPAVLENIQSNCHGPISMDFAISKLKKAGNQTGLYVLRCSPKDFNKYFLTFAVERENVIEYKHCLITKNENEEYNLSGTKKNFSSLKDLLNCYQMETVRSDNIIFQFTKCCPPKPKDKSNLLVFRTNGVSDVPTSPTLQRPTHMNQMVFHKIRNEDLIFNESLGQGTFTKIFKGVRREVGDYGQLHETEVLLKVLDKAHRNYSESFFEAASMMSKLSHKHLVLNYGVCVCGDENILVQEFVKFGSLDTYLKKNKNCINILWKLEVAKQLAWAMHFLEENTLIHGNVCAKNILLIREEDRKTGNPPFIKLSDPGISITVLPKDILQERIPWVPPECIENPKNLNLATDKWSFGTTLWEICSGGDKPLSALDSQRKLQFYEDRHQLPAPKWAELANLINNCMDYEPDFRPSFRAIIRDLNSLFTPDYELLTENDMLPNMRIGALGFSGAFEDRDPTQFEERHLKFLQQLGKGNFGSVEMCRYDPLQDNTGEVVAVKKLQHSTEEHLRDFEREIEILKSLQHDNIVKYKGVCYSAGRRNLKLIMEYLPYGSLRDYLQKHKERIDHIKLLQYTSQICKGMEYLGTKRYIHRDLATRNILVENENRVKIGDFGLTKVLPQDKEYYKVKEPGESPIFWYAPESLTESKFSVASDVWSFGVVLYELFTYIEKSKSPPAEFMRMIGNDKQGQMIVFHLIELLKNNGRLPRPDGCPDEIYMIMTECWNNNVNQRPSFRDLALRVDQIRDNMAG
# c-Src = assay: as above
# Fes = Fes (UniProt P07332); assay: as above
# Sequence of Fes (P07332 whole entry, looked up): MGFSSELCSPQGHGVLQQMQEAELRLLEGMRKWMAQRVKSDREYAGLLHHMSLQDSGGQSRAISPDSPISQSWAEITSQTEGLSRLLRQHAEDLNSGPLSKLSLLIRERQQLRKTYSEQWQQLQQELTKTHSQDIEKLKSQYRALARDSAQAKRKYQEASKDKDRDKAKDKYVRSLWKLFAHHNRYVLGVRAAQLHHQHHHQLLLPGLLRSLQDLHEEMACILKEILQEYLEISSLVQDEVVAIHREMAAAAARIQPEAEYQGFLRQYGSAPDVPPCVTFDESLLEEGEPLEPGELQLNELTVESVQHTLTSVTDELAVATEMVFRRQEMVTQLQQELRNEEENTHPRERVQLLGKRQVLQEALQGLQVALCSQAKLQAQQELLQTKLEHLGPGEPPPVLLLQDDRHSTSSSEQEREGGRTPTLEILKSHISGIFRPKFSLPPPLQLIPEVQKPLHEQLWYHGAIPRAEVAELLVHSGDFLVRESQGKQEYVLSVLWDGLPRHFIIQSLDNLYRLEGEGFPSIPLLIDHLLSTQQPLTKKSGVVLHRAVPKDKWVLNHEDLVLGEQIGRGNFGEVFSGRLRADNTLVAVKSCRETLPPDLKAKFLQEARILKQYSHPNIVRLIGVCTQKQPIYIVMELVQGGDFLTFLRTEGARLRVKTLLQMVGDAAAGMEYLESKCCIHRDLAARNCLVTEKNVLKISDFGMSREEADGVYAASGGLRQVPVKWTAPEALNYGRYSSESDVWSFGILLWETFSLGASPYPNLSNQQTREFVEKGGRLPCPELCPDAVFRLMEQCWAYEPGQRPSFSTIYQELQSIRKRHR
# FGFR3 = FGFR3 (UniProt P22607); assay: as above
# Hck = Hck (UniProt P08631); assay: as above
# Sequence of Hck (P08631 whole entry, looked up, the tested form may be a part): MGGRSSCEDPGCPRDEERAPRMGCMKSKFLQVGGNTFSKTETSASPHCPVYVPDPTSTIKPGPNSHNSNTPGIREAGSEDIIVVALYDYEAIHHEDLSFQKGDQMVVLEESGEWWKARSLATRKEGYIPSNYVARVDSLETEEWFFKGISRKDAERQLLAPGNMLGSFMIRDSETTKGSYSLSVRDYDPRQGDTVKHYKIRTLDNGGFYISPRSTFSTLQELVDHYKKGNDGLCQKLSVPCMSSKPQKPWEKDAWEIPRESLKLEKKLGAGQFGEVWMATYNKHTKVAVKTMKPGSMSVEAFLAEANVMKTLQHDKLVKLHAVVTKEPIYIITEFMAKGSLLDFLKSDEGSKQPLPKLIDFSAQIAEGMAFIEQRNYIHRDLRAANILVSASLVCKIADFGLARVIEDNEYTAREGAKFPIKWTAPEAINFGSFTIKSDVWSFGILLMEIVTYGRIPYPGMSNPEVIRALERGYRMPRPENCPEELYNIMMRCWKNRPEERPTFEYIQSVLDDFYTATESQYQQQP
# 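For SH2 binding enrichment of the phosphorylated peptide, bacterial display in this document: peptide library displayed on the E. coli surface as eCPX fusions, selected cells deep-sequenced, score is each peptide's frequency after selection divided by its frequency in the input.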
# 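For phosphorylation enrichment, bacterial display in this document: 11-residue human phosphosite peptides and single-mutation variants displayed on the E. coli surface, counted by deep sequencing, each peptide's frequency after selection divided by its frequency in the unselected input library; frequency after pTyr selection over input frequency; kinase dosed for 20-30% of maximal phosphorylation in three min.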
# Sequence of EPHB2 (P29323 whole entry, looked up): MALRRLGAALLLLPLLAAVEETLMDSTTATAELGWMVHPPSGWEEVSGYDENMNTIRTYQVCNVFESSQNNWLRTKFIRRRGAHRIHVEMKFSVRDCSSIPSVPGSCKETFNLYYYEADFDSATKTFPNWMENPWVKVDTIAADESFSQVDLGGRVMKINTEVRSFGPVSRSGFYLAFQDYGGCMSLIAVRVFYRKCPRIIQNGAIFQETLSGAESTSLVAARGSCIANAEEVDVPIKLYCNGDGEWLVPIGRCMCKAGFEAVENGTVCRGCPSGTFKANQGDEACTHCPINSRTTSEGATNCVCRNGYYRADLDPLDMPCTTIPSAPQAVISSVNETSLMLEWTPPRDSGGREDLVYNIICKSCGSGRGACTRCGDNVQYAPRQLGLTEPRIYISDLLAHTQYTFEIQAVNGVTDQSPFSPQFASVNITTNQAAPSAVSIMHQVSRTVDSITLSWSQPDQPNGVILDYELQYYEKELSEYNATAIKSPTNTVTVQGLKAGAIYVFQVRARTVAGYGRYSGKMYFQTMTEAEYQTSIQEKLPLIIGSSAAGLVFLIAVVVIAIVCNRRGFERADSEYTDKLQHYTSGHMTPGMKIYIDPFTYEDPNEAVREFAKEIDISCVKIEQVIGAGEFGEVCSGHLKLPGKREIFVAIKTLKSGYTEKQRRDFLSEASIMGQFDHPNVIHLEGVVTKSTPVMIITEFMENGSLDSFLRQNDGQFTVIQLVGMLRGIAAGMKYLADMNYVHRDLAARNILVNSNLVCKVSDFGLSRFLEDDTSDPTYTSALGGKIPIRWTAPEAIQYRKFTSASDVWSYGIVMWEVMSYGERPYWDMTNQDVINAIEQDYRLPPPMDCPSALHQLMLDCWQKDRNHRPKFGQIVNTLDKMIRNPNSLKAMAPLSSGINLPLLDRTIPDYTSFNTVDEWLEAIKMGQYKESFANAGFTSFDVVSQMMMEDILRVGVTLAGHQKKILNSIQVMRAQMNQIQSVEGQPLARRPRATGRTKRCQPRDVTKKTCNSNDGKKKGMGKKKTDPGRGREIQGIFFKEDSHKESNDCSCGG
SH2 binding enrichment (c-Src SH2),SH2 binding enrichment (SHP2-C SH2),SH2 binding enrichment (Grb2 SH2),Sequence,phosphorylation enrichment (EPHB2),phosphorylation enrichment (AncSZ),phosphorylation enrichment (EPHB1),phosphorylation enrichment (c-Abl (mouse)),phosphorylation enrichment (FGFR1),phosphorylation enrichment (MERTK),phosphorylation enrichment (Fer (mouse)),phosphorylation enrichment (Fyn),phosphorylation enrichment (Jak2),phosphorylation enrichment (c-Src),phosphorylation enrichment (Fes),phosphorylation enrichment (FGFR3),phosphorylation enrichment (Hck)
0.544,0.523,0.832,LKSEMYQKLLK [RGS13_Y146],0.925,1.34,0.709,0.733,0.749,0.348,0.456,0.56,0.92,0.425,1.18,0.845,0.78
0.6,0.462,1.08,LLDGEYFTLQI [TP53_Y327_P322L],1.49,5.89,1.95,3.69,10.9,1.28,1.99,3.2,8.38,7.23,5.59,8.15,2.24
1.49,1.28,1.83,LLIVEYAKYGS [RET_Y806],0.872,1.52,1.12,1.03,0.804,0.75,0.868,0.622,1.82,1.23,2.4,0.942,0.759
1.16,0.827,0.856,LLNPRYNLPLD [TOM1L1_Y109],0.822,1.14,0.54,1.32,0.645,1.16,0.62,0.63,0.83,0.59,0.952,0.767,0.741
0.434,0.518,0.932,LLSVAYKNVVG [YWHAG_Y49],0.64,1.02,0.645,1.05,0.589,0.454,0.551,0.585,0.649,0.418,0.935,0.709,0.665
2.53,2.77,21.1,LLSVAYQNVVG [YWHAG_Y49_K50Q],1.07,1.23,1.19,0.832,1.34,0.519,0.83,0.757,1.22,0.443,1.25,1.08,0.632

# More lines, now with the values behind:
Sequence,SH2 binding enrichment (c-Src SH2),SH2 binding enrichment (SHP2-C SH2),SH2 binding enrichment (Grb2 SH2),phosphorylation enrichment (EPHB2),phosphorylation enrichment (AncSZ),phosphorylation enrichment (EPHB1),phosphorylation enrichment (c-Abl (mouse)),phosphorylation enrichment (FGFR1),phosphorylation enrichment (MERTK),phosphorylation enrichment (Fer (mouse)),phosphorylation enrichment (Fyn),phosphorylation enrichment (Jak2),phosphorylation enrichment (c-Src),phosphorylation enrichment (Fes),phosphorylation enrichment (FGFR3),phosphorylation enrichment (Hck)
LITILYIGFLG [KCNQ1_Y267_T265I],0.845,1.26,0.879,1.18,2.28,0.835,2.13,0.72,1.43,0.895,0.809,2.73,1.24,2.55,1.31,1.08
LITTLYIDFLG [KCNQ1_Y267_G269D],0.698,0.96,1.13,1.06,1.42,1.15,1.07,1.09,0.704,0.749,1.41,1.39,1.22,1.96,1.19,0.818
LKDEDYLKDTV [HAUS3_Y582_I586T],0.478,0.501,0.708,1.67,3.63,1.7,1.37,1.88,1.04,0.928,1.99,2.34,0.838,3.04,1.63,1.67
LKEIRYPPYTD [ALDH3B2_Y362_H361R],0.555,0.729,0.883,0.589,0.761,0.348,0.749,0.539,0.518,0.541,0.31,0.827,0.494,1.06,0.702,0.678
LKGQVYILGGE [ASS1_Y359_R363G],0.529,0.812,0.952,1.07,1.33,1.13,1.32,1.06,1.05,1.02,0.995,1.62,1.13,1.93,1.28,0.824
LKKLEYLNLPL [LRRC6_Y70_A74P],0.69,1.4,10.3,0.441,0.818,0.531,0.622,1.26,0.423,0.47,0.364,0.694,0.374,0.741,1.12,0.518
LLAGLYRGQAL [FGFR4_Y390],0.508,0.882,0.63,0.594,0.857,0.433,0.591,0.459,0.553,0.683,0.494,0.72,0.452,0.833,0.526,0.571
LLVVLYKYRCF [PSEN1_Y154_Y159F],1.29,1.61,1.63,1.03,1.32,1.23,2.02,1.11,0.626,0.911,0.762,2.16,0.523,2.42,1.12,0.825
LQEQNYLAVDS [FAM114A1_Y115],0.644,0.53,0.725,2.83,2.1,6.07,0.817,3.67,1.17,4.67,1.47,1.39,0.673,2.5,3.19,0.946
